Assay results taken from the supplement of paper PMC10567573.
± gives the standard deviation.

Assay: protein stability index of a GFP-peptide fusion (GPS, HEK-293T) (PSI 1-6); higher = more stable
Settings: c terminus: a fixed tail appended
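Note: 24-mer peptide tiles fused after GFP, lentivirally expressed, FACS-sorted into six equal bins by GFP/DsRed ratio, decoded by Illumina sequencing, PSI is the read-weighted mean bin number.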

Sequence	protein stability index (treatment: DMSO)	protein stability index (treatment: MLN4924 1 uM, 8 h)
QLEQPEKMPVLKAEASHYNSDLNN [RHOBTB3]	4.83 ± 0.19	4.94 ± 0.15
KIWPEIKVPRPDALDNESWGFVHP [RETREG3]	2.68 ± 0.48	2.57 ± 0.54
PEISRIIVDPTTGKRYCRGKVLGK [PLK2]	3.9 ± 0.22	4.04 ± 0.2
SLADGGSASPIKDQPVMAVKTGED [FANCE]	5.46 ± 0.23	5.6 ± 0.16
ALVRTRMQAQASIEGAPEVTMSSL [SLC25A25]	3.6 ± 0.34	3.59 ± 0.33
WKSHLKKVQKPLLQAPFLPPKAPP [RHOBTB1]	3.21 ± 0.17	3.37 ± 0.34
FPDLLLTKRDSFLKRLYRAPIDWI [ALG2]	2.27 ± 0.29	2.64 ± 0.52
VLIRYPNSLDTTSWAWRGPGVLKV [LPCAT4]	2.77 ± 0.23	2.69 ± 0.8
AIQLLSRMEYVHSKNLIYRDVKPE [CSNK1G1]	2.28 ± 0.2	2.33 ± 0.31
AIEHFQPNADLLFSDPSQSDPETK [FCHO1]	5.5 ± 0.074	5.44 ± 0.25
NTTCQTENRLSVFFSVIFMTVGIL [PTGFR]	2.39 ± 0.53	2.64 ± 0.46
DSDDDDDVAVTVDRDRFMDEFFEQ [STX1A]	5.36 ± 0.49	5.43 ± 0.32
MAAGNTVIAKPSELTSVTAWMLCK [ALDH8A1]	2.44 ± 0.1	2.35 ± 0.23
RERQRRLEVEREAEKKREAKQRAK [LRRC59]	5.22 ± 0.29	5.43 ± 0.06
HYDRNKDGNKDVYLSLLRMYLSPP [VPS39]	2.29 ± 0.14	2.16 ± 0.18
SFWNSSHPRGWNDHVHILDTETFT [KLHDC2]	2.54 ± 0.17	2.39 ± 0.3
EPLRSEILSGKFTILNVRDPTGAS [PTPN9]	3.65 ± 0.098	3.58 ± 0.16
IKSVKESLQESVEDSLATVKVVLI [IQUB]	2.27 ± 0.66	2.44 ± 0.32
EESRISVPVHSFASLNIKTTVPEV [PRPH]	4.05 ± 0.35	3.98 ± 0.39
RLTQYMDGSGMPKTMQSEETRVWH [CAMK2D]	3.44 ± 0.47	3.51 ± 0.19
LVSVYPDKYCPLLIKEGGMPLLRD [ZER1]	2.38 ± 0.23	2.42 ± 0.29
LLGGDLRYHLQQNVHFKEETVKLF [STK32A]	2.36 ± 0.41	2.6 ± 0.27
LMDEGASSEKKRQSSADGSQPPKK [RBBP5]	5.56 ± 0.36	5.53 ± 0.24

Sequence	protein stability index (treatment: DMSO)	protein stability index (treatment: MLN4924 1 uM, 8 h)
VFSQMIHLNETVKAPDIECVLRCS [FEM1B]	2.13 ± 0.36	2.11 ± 0.35
GIIRCPDGISIPELREACDYLCIS [BTBD10]	2.36 ± 0.35	2.5 ± 0.2
RDAAIKKLATEAGVEVIVRISHTL [CRY1]	2.83 ± 0.92	2.62 ± 0.68
ETYHQQGQCQVLVQRSPWLMMRMG [TCAP]	2.18 ± 0.22	2.23 ± 0.35
NRLSIGLQSLDDTELRLLGRTHSA [RSAD1]	3.77 ± 0.22	3.79 ± 0.28
KLERLKQQNEDLRRMAESLRIPEG [FUT8]	3.87 ± 0.28	4 ± 0.3
GDAGSRGPMGMRGPPGPQGPPGSP [EMID1]		4.54 ± 1.7
VWDMRSGQCVQAFETHESDINSVR [GNB5]	3.48 ± 0.24	3.56 ± 0.15
RERPLNVFCDMETDGGGWLVFQRR [TNXB]	3 ± 0.98	2.79 ± 0.48
RLHLAFKRQVPTEQAQAYAERLGV [RAB40B]	3.13 ± 0.2	3.1 ± 0.26
LKDHFSHLLGIPHSVLQIRYSGKI [IQUB]	2.19 ± 0.38	2.06 ± 0.39
GTGGEEVEALQLSARWLEVLRTYL [FBXO33]	2.41 ± 0.23	2.32 ± 0.31
FQQLMVETCSCGYYLHPLPAGAEY [SCNN1D]	2.6 ± 0.69	2.8 ± 0.69
VLLMHMPAEQAFWCLVQICEKYLP [TBC1D10A]	2.96 ± 0.37	2.88 ± 0.57
RSRGASQKKQKLEQKAAGSASAKR [FATE1]	5.07 ± 0.27	5.06 ± 0.31
KAQLLARVNKEHEHKLKVVRDQIS [TRIM9]	3.34 ± 0.27	3.42 ± 0.075
FFASGFKRAFKIKDFANTIPGHGG [CDS2]	1.95 ± 0.11	2.33 ± 0.2
STFASLIGPFGGFFASGFKRAFKI [CDS2]	2.21 ± 0.44	2.37 ± 0.38
AGEEDPSGMVTIITGLPLDNPSVL [SMG5]	3.7 ± 0.18	3.75 ± 0.19
TDGMILGPEDLSYQIYDVSGESNS [LARP4]	4.71 ± 0.22	4.58 ± 0.37
QTPTKEELDAIIEEVDEDGSGTID [TNNC2]	5.67 ± 0.44	5.16 ± 0.28
MRSPQNLHSQEDDDSSSESGSGNG [NOL4L]	5.64 ± 0.21	5.51 ± 0.16
